{"source": "patent US20260062488A1", "key": {"[1]": {"target": "cynomolgus α4β7 integrin (cynomolgus monkey)", "test": "FACS, cyno CD4+ naïve"}, "[2]": {"target": "cynomolgus α4β7 integrin (cynomolgus monkey)", "test": "FACS, cyno CD4+ total"}, "[3]": {"target": "cynomolgus α4β7 integrin (cynomolgus monkey)", "test": "FACS, cyno CD8+ naïve"}, "[4]": {"target": "cynomolgus α4β7 integrin (cynomolgus monkey)", "test": "FACS, cyno CD8+ total"}, "[5]": {"target": "cynomolgus α4β7 integrin (cynomolgus monkey)", "test": "FACS, cyno CD8+ memory"}, "[6]": {"target": "human α4β7 integrin (human) (UniProt P13612)", "test": "FACS, human CD4+ naïve"}, "[7]": {"target": "human α4β7 integrin (human) (UniProt P13612)", "test": "FACS, human CD4+ total"}, "[8]": {"target": "human α4β7 integrin (human) (UniProt P13612)", "test": "FACS, human CD8+ naïve"}, "[9]": {"target": "human α4β7 integrin (human) (UniProt P13612)", "test": "FACS, human CD8+ total"}, "[10]": {"target": "human α4β7 integrin (human) (UniProt P13612)", "test": "flow cytometry, HuT78 cells"}, "[11]": {"target": "human α4β7 integrin (human) (UniProt P13612)", "test": "FACS titration on BaF3-hα4β7"}, "[12]": {"target": "human α4β7 integrin (human) (UniProt P13612)", "test": "binding to human lymphocytes"}, "[13]": {"target": "human α4β7 integrin (human) (UniProt P13612)", "test": "ELISA on coated α4β7+GFP+VLPs"}, "[14]": {"target": "cynomolgus αEβ7 integrin (cynomolgus monkey)", "test": "FACS, 1 µg/ml, BaF3-cαEβ7 cells"}, "[15]": {"target": "human α4β7 integrin (human) (UniProt P13612)", "test": "FACS, 1 µg/ml, BaF3-hα4β7 cells"}, "[16]": {"target": "human αEβ7 integrin (human) (UniProt P38570)", "test": "FACS, 1 µg/ml, BaF3-hαEβ7 cells"}, "[17]": {"target": "cynomolgus αEβ7 integrin (cynomolgus monkey)", "test": "FACS, 1 µg/ml, BaF3-cαEβ7 cells", "remark": "listed apart in the source"}, "[18]": {"target": "human α4β7 integrin (human) (UniProt P13612)", "test": "FACS, 1 µg/ml, BaF3-hα4β7 cells", "remark": "listed apart in the source"}, "[19]": {"target": "human αEβ7 integrin (human) (UniProt P38570)", "test": "FACS, 1 µg/ml, BaF3-hαEβ7 cells", "remark": "listed apart in the source"}, "[20]": {"target": "cynomolgus α4β7 integrin (cynomolgus monkey)", "test": "FACS, 1 µg/ml, CHOK1-cα4β7 cells"}, "[21]": {"target": "human α4β1 integrin (human) (UniProt P05556)", "test": "FACS, 1 µg/ml, CHOK1-hα4β1 cells"}, "[22]": {"target": "mouse α4β7 integrin (mouse) (UniProt Q00651)", "sequence (Q00651 41-1039, chain 1 of 2)": "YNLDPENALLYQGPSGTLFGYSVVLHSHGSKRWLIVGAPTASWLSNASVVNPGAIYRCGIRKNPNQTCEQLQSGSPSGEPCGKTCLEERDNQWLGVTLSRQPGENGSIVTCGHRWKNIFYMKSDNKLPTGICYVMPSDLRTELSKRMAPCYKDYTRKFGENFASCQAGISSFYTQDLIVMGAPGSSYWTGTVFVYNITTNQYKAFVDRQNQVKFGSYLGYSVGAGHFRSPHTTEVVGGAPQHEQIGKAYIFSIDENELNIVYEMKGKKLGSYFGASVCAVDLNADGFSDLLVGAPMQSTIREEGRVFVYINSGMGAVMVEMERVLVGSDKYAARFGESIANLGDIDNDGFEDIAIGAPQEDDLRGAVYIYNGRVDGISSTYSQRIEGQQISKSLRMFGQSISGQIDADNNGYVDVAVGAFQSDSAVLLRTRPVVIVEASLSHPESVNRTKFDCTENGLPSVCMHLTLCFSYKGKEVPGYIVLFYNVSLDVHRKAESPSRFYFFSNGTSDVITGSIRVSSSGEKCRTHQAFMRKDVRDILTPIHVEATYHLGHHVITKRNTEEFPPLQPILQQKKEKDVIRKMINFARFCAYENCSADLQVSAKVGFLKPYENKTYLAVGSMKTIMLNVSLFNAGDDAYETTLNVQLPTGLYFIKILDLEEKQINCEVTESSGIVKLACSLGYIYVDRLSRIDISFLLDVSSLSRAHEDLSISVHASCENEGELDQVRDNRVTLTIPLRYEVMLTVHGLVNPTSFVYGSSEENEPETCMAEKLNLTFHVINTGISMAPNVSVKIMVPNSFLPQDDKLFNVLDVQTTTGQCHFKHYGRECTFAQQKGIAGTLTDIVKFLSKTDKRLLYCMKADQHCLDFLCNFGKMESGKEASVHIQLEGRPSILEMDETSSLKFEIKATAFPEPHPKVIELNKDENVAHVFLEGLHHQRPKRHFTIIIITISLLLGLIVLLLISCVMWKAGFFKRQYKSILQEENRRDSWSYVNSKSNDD", "sequence (P26011 20-806, chain 2 of 2, further chain)": "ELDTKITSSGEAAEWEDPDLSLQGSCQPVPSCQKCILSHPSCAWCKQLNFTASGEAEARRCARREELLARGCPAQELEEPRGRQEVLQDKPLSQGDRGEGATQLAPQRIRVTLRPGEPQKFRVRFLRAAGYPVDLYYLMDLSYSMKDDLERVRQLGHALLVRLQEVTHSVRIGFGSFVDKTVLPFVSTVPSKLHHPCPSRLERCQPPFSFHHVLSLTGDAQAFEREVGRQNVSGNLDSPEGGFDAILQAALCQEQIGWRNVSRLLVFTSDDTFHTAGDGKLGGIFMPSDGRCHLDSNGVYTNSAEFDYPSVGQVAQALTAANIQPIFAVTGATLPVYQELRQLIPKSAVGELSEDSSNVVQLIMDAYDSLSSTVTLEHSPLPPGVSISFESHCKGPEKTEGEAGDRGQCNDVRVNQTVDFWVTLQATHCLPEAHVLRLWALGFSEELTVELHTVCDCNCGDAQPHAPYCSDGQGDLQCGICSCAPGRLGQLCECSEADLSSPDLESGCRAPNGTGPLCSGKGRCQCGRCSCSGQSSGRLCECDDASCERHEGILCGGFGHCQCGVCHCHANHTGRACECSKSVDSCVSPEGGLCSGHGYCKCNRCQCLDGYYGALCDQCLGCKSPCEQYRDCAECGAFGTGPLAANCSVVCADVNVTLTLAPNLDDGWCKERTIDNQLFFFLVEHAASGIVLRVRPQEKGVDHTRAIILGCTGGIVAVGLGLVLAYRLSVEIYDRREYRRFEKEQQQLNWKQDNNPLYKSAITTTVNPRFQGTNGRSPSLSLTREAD", "test": "FACS, 1 µg/ml, CHOK1-mα4β7 cells"}, "[23]": {"target": "cynomolgus α4β7 integrin (cynomolgus monkey)", "test": "FACS, 1 µg/ml, CHOK1-cα4β7 cells", "remark": "listed apart in the source"}, "[24]": {"target": "human α4β1 integrin (human) (UniProt P05556)", "test": "FACS, 1 µg/ml, CHOK1-hα4β1 cells", "remark": "listed apart in the source"}, "[25]": {"target": "human α4β7 integrin (human) (UniProt P13612)", "test": "FACS, primary human CD4+ memory T cells"}, "[26]": {"target": "human α4β7 integrin (human) (UniProt P13612)", "test": "blockade of HuT78 cell adhesion to MAdCAM-1"}, "[27]": {"target": "human α4β7 integrin (human) (UniProt P13612)", "test": "blockade of HuT78 cell adhesion to MAdCAM-1", "remark": "listed apart in the source"}, "[28]": {"target": "cynomolgus α4β7 integrin (cynomolgus monkey)", "test": "blockade of CHOK1/cα4β7 adhesion to MAdCAM-1"}, "[29]": {"target": "cynomolgus α4β7 integrin (cynomolgus monkey)", "test": "blockade of CHOK1-cα4β7 cell adhesion to MAdCAM-1"}, "[30]": {"target": "cynomolgus α4β7 integrin (cynomolgus monkey)", "test": "blockade of CHOK1-cα4β7 cell adhesion to MAdCAM-1", "remark": "listed apart in the source"}, "[31]": {"target": "human α4β7 integrin (human) (UniProt P13612)", "test": "blockade of MAdCAM-1 mediated HuT78 cell adhesion"}, "[32]": {"target": "human α4β7 integrin (human) (UniProt P13612)", "test": "virion capture, Protein G plate, HIV BCF06, p24 gag"}, "[33]": {"target": "human α4β7 integrin (human) (UniProt P13612)", "test": "virion capture, Protein G plate, HIV CMU08, p24 gag"}, "[34]": {"target": "human α4β7 integrin (human) (UniProt P13612)", "test": "virion capture, Protein G plate, HIV NL4-3, p24 gag"}, "[35]": {"target": "human α4β7 integrin (human) (UniProt P13612)", "test": "virion capture, Protein G plate, HIV RU570, p24 gag"}, "[36]": {"target": "human α4β7 integrin (human) (UniProt P13612)", "test": "virion capture, Protein G plate, HIV YBF30, p24 gag"}, "[37]": {"target": "human α4β7 integrin (human) (UniProt P13612)", "test": "HuT78 cells, FACS-based blockade of MAdCAM-1 binding"}, "[38]": {"target": "human α4β7 integrin (human) (UniProt P13612)", "test": "competitive FACS, 50x excess of non-labelled competitor Ab-m1"}, "[39]": {"target": "human α4β7 integrin (human) (UniProt P13612)", "test": "competitive FACS, 50x excess of non-labelled competitor Ab-Abri"}, "[40]": {"target": "human α4β7 integrin (human) (UniProt P13612)", "test": "competitive FACS, 50x excess of non-labelled competitor Ab-Etro"}, "[41]": {"target": "human α4β7 integrin (human) (UniProt P13612)", "test": "competitive FACS, 50x excess of non-labelled competitor Ab-Vedo"}, "[42]": {"target": "human α4β7 integrin (human) (UniProt P13612)", "test": "blockade of RPMI 8866 cell binding to immobilised gp120-V2 WT peptide"}, "[43]": {"target": "human α4β7 integrin (human) (UniProt P13612)", "test": "human lymphocytes, printed as plate-based cell adhesion blockade to MAdCAM-1"}, "[44]": {"target": "human α4β7 integrin (human) (UniProt P13612)", "test": "row IC50 (pM) HuT78 of the binning table (assay not explained, presumably adhesion to MAdCAM-1)"}, "[45]": {"target": "human α4β7 integrin (human) (UniProt P13612)", "test": "ELISA on plates coated with α4β7+GFP+VLPs; table drawn under the plot, without unit: unit from the axis '[Ab] (nM)'; the text prints the rounded 0.058 nM"}, "[46]": {"target": "human α4β7 integrin (human) (UniProt P13612)", "test": "blockade of HuT78 cell adhesion to plate-bound MAdCAM-1, representative experiment; the two IC50 lines under the plot bear no name: the higher one is given to Ab-Vedo, whose curve lies right of Ab-m1's (midpoint near log -1.8 ug/ml)"}, "[47]": {"target": "cynomolgus α4β7 integrin (cynomolgus monkey)", "test": "blockade of CHOK1-cα4β7 cell adhesion to MAdCAM-1, representative experiment; the two IC50 lines under the plot bear no name: the higher one is given to Ab-Vedo, whose curve lies clearly right of Ab-m1's (midpoint near log -0.9 ug/ml)"}, "[48]": {"target": "human α4β7 integrin (human) (UniProt P13612)", "test": "cell-based or functional assay"}}, "note": "Values joined by “and” are separate entries in the source; they are usually repeats but may differ in a detail not shown here. Equal values may be shown once. Read-outs that look alike come from different tables or passages of the source.", "data": [{"substance": "Ab-Vedo (antibody)", "values": [{"measurement": "EC50", "setting": "[1]", "result": 0.228, "unit": "nM"}, {"measurement": "EC50", "setting": "[2]", "result": 0.202, "unit": "nM"}, {"measurement": "EC50", "setting": "[3]", "result": 0.256, "unit": "nM"}, {"measurement": "EC50", "setting": "[4]", "result": 0.199, "unit": "nM"}, {"measurement": "EC50", "setting": "[5]", "result": 0.204, "unit": "nM"}, {"measurement": "EC50", "setting": "[6]", "result": 0.381, "unit": "nM"}, {"measurement": "EC50", "setting": "[7]", "result": 0.381, "unit": "nM"}, {"measurement": "EC50", "setting": "[8]", "result": 0.727, "unit": "nM"}, {"measurement": "EC50", "setting": "[9]", "result": 0.658, "unit": "nM"}, {"measurement": "EC50", "setting": "[10]", "result": 0.911, "unit": "nM"}, {"measurement": "EC50", "setting": "[11]", "result": 0.713, "unit": "nM"}, {"measurement": "Max MFI", "setting": "[11]", "result": 848, "unit": "MFI"}, {"measurement": "EC50", "setting": "[12]", "result": 0.502, "unit": "nM"}, {"measurement": "EC50", "setting": "[13]", "result": 0.058, "unit": "nM"}, {"measurement": "FACS MFI", "setting": "[14]", "result": 57.2, "unit": "MFI"}, {"measurement": "FACS MFI", "setting": "[15]", "result": 707, "unit": "MFI"}, {"measurement": "FACS MFI", "setting": "[16]", "result": 11.6, "unit": "MFI"}, {"measurement": "FACS MFI", "setting": "[17]", "result": 60.9, "unit": "MFI"}, {"measurement": "FACS MFI", "setting": "[18]", "result": 153, "unit": "MFI"}, {"measurement": "FACS MFI", "setting": "[19]", "result": 19.5, "unit": "MFI"}, {"measurement": "FACS MFI", "setting": "[20]", "result": 101, "unit": "MFI"}, {"measurement": "FACS MFI", "setting": "[21]", "result": 4.23, "unit": "MFI"}, {"measurement": "FACS MFI", "setting": "[22]", "result": 2.91, "unit": "MFI"}, {"measurement": "FACS MFI", "setting": "[23]", "result": 46.5, "unit": "MFI"}, {"measurement": "FACS MFI", "setting": "[24]", "result": 2.87, "unit": "MFI"}, {"measurement": "EC50", "setting": "[25]", "result": 0.0432, "unit": "nM"}, {"measurement": "IC50", "setting": "[26]", "result": 0.0949, "unit": "nM"}, {"measurement": "Max inhibition (%)", "setting": "[26]", "result": 86.5, "unit": "%"}, {"measurement": "IC50", "setting": "[27]", "result": 0.0574, "unit": "nM"}, {"measurement": "Max inhibition (%)", "setting": "[27]", "result": 94.7, "unit": "%"}, {"measurement": "IC50", "setting": "[28]", "result": 0.12, "unit": "nM"}, {"measurement": "IC50", "setting": "[29]", "result": 0.562, "unit": "nM"}, {"measurement": "Max inhibition (%)", "setting": "[29]", "result": 76, "unit": "%"}, {"measurement": "IC50", "setting": "[30]", "result": 0.541, "unit": "nM"}, {"measurement": "Max inhibition (%)", "setting": "[30]", "result": 94.4, "unit": "%"}, {"measurement": "IC50", "setting": "[31]", "result": "0.031 nM and 0.06 nM"}, {"measurement": "EC50", "setting": "[32]", "result": "0.37 nM and 0.056 µg/mL"}, {"measurement": "EC50", "setting": "[33]", "result": "0.5 nM and 0.075 µg/mL"}, {"measurement": "EC50", "setting": "[34]", "result": "0.34 nM and 0.05 µg/mL"}, {"measurement": "EC50", "setting": "[35]", "result": "0.32 nM and 0.048 µg/mL"}, {"measurement": "EC50", "setting": "[36]", "result": "0.48 nM and 0.072 µg/mL"}, {"measurement": "IC50", "setting": "[37]", "result": 0.193, "unit": "nM"}, {"measurement": "percentage of binding inhibition", "setting": "[38]", "result": 76, "unit": "%"}, {"measurement": "percentage of binding inhibition", "setting": "[39]", "result": 89, "unit": "%"}, {"measurement": "percentage of binding inhibition", "setting": "[40]", "result": 18, "unit": "%"}, {"measurement": "percentage of binding inhibition", "setting": "[41]", "result": 88, "unit": "%"}, {"measurement": "IC50", "setting": "[42]", "result": 0.042, "unit": "µg/mL"}, {"measurement": "IC50", "setting": "[43]", "result": 0.63, "unit": "nM"}, {"measurement": "IC50", "setting": "[44]", "result": 0.089, "unit": "nM"}, {"measurement": "EC50", "setting": "[45]", "result": 0.0582, "unit": "nM"}, {"measurement": "IC50", "setting": "[46]", "result": 0.0981, "unit": "nM"}, {"measurement": "IC50", "setting": "[47]", "result": 0.822, "unit": "nM"}]}, {"substance": "MAdCAM-1 (R&D systems) (from UniProt Q13477 19-317) (ligand)", "values": [{"measurement": "activated (Ki67+CD25+) human primary CD4+ T cells with plate bound anti-CD3 and MAdCAM-1 (22.6% with anti-CD3 alone)", "setting": "[48]", "result": 56.6, "unit": "%"}]}]}
